Experiment: Emitted dose of volumetrically dosed API/excipient mixtures delivered by a proprietary DPI
Type: physicochemical
Source text: In the course of developing methods and products according to the present invention different APIs were mixed with excipients in different ratios. The objectives were to find inter alia suitable formulations and methods of filling doses, but also to optimize inhaler techniques and interaction between inhaler and dose container. Table 1 below discloses some examples of volumetrically dosed mixtures API/excipient and the resulting emitted dose when delivered by a proprietary DPI. […] The objective was to find suitable excipients and to see how different mixing ratios affected the emitted dose. The mixtures were produced under laboratory conditions in small quantities and remained quasi-stable under the run of tests. The emitted dose as percentage of total recovered dose was measured and the results were used in the development of the current invention.

[1] = excipient Mannitole, ratio API/excipient 50/50, proprietary DPI
[2] = excipient Respitose®, ratio API/excipient 20/80, proprietary DPI

## insulin [Micronized insulin]
[1]
  Emitted Dose in % of recovered dose: 83 % of recovered dose
  Retention in % of recovered dose: 17 % of recovered dose
[2]
  Emitted Dose in % of recovered dose: 93 % of recovered dose
  Retention in % of recovered dose: 7 % of recovered dose
